The values that follow come from patent US20220331371A1, “DEVELOPMENT OF EMBRYONIC-LIKE TISSUE FROM STEM CELLS” (The Regents of the University of Michigan, priority 2019, published 2022).

Holding throughout (type): cell-based, human
Assay [1] relates to PrePS-EPI-like cells in P-ELS. Kind of assay: Posterior primitive streak-like cell development in P-ELS with antagonists in the induction channel. As to conditions: prolonged culture to t=48 h, IWR1 10 μM in induction channel. The text has this: (§1) Cell lines. hPSC lines used in this study include H1 human ES cell (WA01, WiCell; NIH registration number: 0043), H9 human ES cell (WA09, WiCell; NIH registration number: 0062) and 1196a (a human iPSC line from the University of Michigan Pluripotent Stem Cell Core31). All hPSC lines have been authenticated by original sources as well as in-house by immunostaining for pluripotency markers and successful differentiation to the three germ layers. All hPSC lines are maintained in a feeder-free system for at least ten passages and authenticated as karyotypically normal. Karyotype analysis was performed by Cell Line Genetics. All hPSC lines are tested negative for mycoplasma contamination (LookOut Mycoplasma PCR Detection Kit, Sigma-Aldrich). Cell culture. hPSCs were maintained in a standard feeder-free culture system using mTeSR medium (mTeSR; STEMCELL Technologies) or TeSR-E8 medium (Essential 8 or E8; STEMCELL Technologies) and lactate dehydrogenase-elevating virus (LDEV)-free, human ES cell-qualified reduced growth factor basement membrane matrix Geltrex (Thermo Fisher Scientific; derived from Engelbreth-Holm-Swarm tumors similarly to Matrigel). Cell cultures were visually examined during each passage to ensure absence of spontaneously differentiated, mesenchymal-like cells in culture. All hPSCs were used before reaching P70. Device fabrication. The microfluidic device consists of a polydimethylsiloxane (PDMS) structure layer bonded to a coverslip. The PDMS structure layer is made by mixing PDMS curing agent and base polymer (Sylgard 184; Dow Coming) at a ratio of 1:10 before casting PDMS prepolymer onto a microfabricated silicon mold and baking at 110° C. for 40 min. Medium reservoirs (8 mm in diameter) and gel-loading ports (1.2 mm in diameter) were then punched into the PDMS structure layer using Harris Uni-Core punch tools (Ted Pella). After cleaning with ethanol and air plasma activation, the PDMS structure layer was bonded to a coverslip before baking at 80° C. overnight. Before usage, the microfluidic device was sterilized under UV light for 30 min. […]

In assay [2] the test system is hPGCLCs in P-ELS. Kind of assay: hPGCLC specification in P-ELS. The following applies: P-ELS treated with 0.4 μM or 2 μM.
From the text: as §1, with “fabrication.” for “fabrication. The microfluidic device consists of a polydimethylsiloxane (PDMS) structure layer bonded to a coverslip. The PDMS structure layer is made by mixing PDMS curing agent and base polymer (Sylgard 184; Dow Coming) at a ratio of 1:10 before casting PDMS prepolymer onto a microfabricated silicon mold and baking at 110° C. for 40 min. Medium reservoirs (8 mm in diameter) and gel-loading ports (1.2 mm in diameter) were then punched into the PDMS structure layer using Harris Uni-Core punch tools (Ted Pella). After cleaning with ethanol and air plasma activation, the PDMS structure layer was bonded to a coverslip before baking at 80° C. overnight. Before usage, the microfluidic device was sterilized under UV light for 30 min.”

Assay [3] concerns embryonic-like sacs (P-ELS, A-ELS). Kind of assay: Microfluidic generation of asymmetric embryonic-like sacs with morphogens in the induction channel. The following applies: for Cyst phenotype obtained: 50 ng ml^−1 each, supplemented into the induction channel. The text has this:
Cell lines. hPSC lines used in this study include H1 human ES cell (WA01, WiCell; NIH registration number: 0043), H9 human ES cell (WA09, WiCell; NIH registration number: 0062) and 1196a (a human iPSC line from the University of Michigan Pluripotent Stem Cell Core31). All hPSC lines have been authenticated by original sources as well as in-house by immunostaining for pluripotency markers and successful differentiation to the three germ layers. All hPSC lines are maintained in a feeder-free system for at least ten passages and authenticated as karyotypically normal. Karyotype analysis was performed by Cell Line Genetics. All hPSC lines are tested negative for mycoplasma contamination (LookOut Mycoplasma PCR Detection Kit, Sigma-Aldrich). Cell culture. hPSCs were maintained in a standard feeder-free culture system using mTeSR medium (mTeSR; STEMCELL Technologies) or TeSR-E8 medium (Essential 8 or E8; STEMCELL Technologies) and lactate dehydrogenase-elevating virus (LDEV)-free, human ES cell-qualified reduced growth factor basement membrane matrix Geltrex (Thermo Fisher Scientific; derived from Engelbreth-Holm-Swarm tumors similarly to Matrigel). Cell cultures were visually examined during each passage to ensure absence of spontaneously differentiated, mesenchymal-like cells in culture. All hPSCs were used before reaching P70. Device fabrication. The microfluidic device consists of a polydimethylsiloxane (PDMS) structure layer bonded to a coverslip. The PDMS structure layer is made by mixing PDMS curing agent and base polymer (Sylgard 184; Dow Coming) at a ratio of 1:10 before casting PDMS prepolymer onto a microfabricated silicon mold and baking at 110° C. for 40 min. Medium reservoirs (8 mm in diameter) and gel-loading ports (1.2 mm in diameter) were then punched into the PDMS structure layer using Harris Uni-Core punch tools (Ted Pella). After cleaning with ethanol and air plasma activation, the PDMS structure layer was bonded to a coverslip before baking at 80° C. overnight. Before usage, the microfluidic device was sterilized under UV light for 30 min. Geltrex diluted in mTeSR (8 mg ml^−1) was then injected into the central gel channel and allowed to cure for 10 min at 37° C. in an incubator. The central gel channel was separated from the cell loading and induction channels by trapezoid-shaped supporting posts. Diluted Geltrex matrix was contained in the gel channel by supporting posts owing to surface tension. Upon gelation, Geltrex matrix contracts, generating concave Geltrex pockets between supporting posts. mTeSR medium was immediately added to medium reservoirs to fill both the cell loading and induction channels. The microfluidic device was then incubated at 37° C. and 5% CO2, for 24 h to stabilize the Geltrex matrix in the gel channel. Microfluidic assays. Colonies of hPSCs were dissociated by Accutasc. (Sigma-Aldrich) at 37° C., for 10 min before being suspended in mTeSR as single cells. Cells were then centrifuged and resuspended in mTeSR, containing 10 μM Y27632 (Tocris), a ROCK inhibitor that prevents dissociation-induced apoptosis of hPSCs32, at a concentration of 8×10^6 cells per ml. After aspirating mTeSR from medium reservoirs, 10 μl hPSC suspension was introduced into the cell-loading channel (t=−18 h), The microfluidic device was then tilted 90° for 10 min to allow cell settlement into Geltrex pockets and their clustering and adhesion to Geltrex matrix. Medium reservoirs were then refilled with fresh mTeSR medium containing 10 μM Y27632. […]

Regarding `O=C(Nc1cccc2cccnc12)c1ccc(N2C(=O)[C@@H]3[C@H](C2=O)[C@@H]2C=C[C@H]3C2)cc1` [IWR1], the “Effect on progressive development of P-ELS” value in assay [1] is reported as “does not affect”.
Regarding `O=C(NNc1nc2cc(F)ccc2n2cccc12)c1cnccn1` [SC144], in assay [2], the “Effect on hPGCLC specification” value is listed as “did not affect”.

B1: BMP4: Bone Morphogenic Protein 4 (R&D Systems) (protein, UniProt P12644 293-408, looked up)
Bone morphogenetic protein 4: SPKHHSQRARKKNKNCRRHSLYVDFSDVGWNDWIVAPPGYQAFYCHGDCPFPLADHLNSTNHAIVQTLVNSVNSSIPKACCVPTELSAISMLYLDEYDKVVLKNYQEMVVEGCGCR
As to B1, the “Cysts differentiated into asymmetrical E-cadherin+ sacs (P-ELS)” value in assay [3] (BMP4 50 ng ml^−1 in induction channel from t=0 h, t=36 h) is listed as 92%. Also, the “Cysts patterned to amniotic ectoderm-like fate (A-ELS)” value in assay [3] (BMP4 in induction channel, IWP2 and noggin in cell-loading channel, t=36 h) is reported as 96%.

B2: WNT3A: exogenous Wnt protein (R&D Systems) (protein, UniProt P56704 19-352, looked up)
Protein Wnt-3a: SYPIWWSLAVGPQYSSLGSQPILCASIPGLVPKQLRFCRNYVEIMPSVAEGIKIGIQECQHQFRGRRWNCTTVHDSLAIFGPVLDKATRESAFVHAIASAGVAFAVTRSCAEGTAAICGCSSRHQGSPGKGWKWGGCSEDIEFGGMVSREFADARENRPDARSAMNRHNNEAGRQAIASHMHLKCKCHGLSGSCEVKTCWWSQPDFRAIGDFLKDKYDSASEMVVEKHRESRGWVETLRPRYTYFKVPTERDLVYYEASPNFCEPNPETGSFGTRDRTCNVSSHGIDGCDLLCCGRGHNARAERRREKCRCVFHWCCYVSCQECTRVYDVHTCK
Turning to B2, in assay [3], the Cyst phenotype obtained result was “columnar epiblast-like cysts containing OCT4^+NANOG^+, COX2^−EOMES^−T^− EPILCs”. Further, the “Requirement for embryonic-like sac formation” value in assay [3] (induction channel, with or without BMP4) is “dispensable”.

B3: Activin A: exogenous activin protein (R&D Systems) (protein, UniProt P08476 311-426, looked up)
Inhibin beta A chain: GLECDGKVNICCKKQFFVSFKDIGWNDWIIAPSGYHANYCEGECPSHIAGTSGSSLSFHSTVINHYRMRGHSPFANLKSCCVPTKLRPMSMLYYDDGQNIIKKDIQNMIVEECGCS
modifications: Inhibin beta A chain
Consider B3, for which the Cyst phenotype obtained result in assay [3] was “cysts containing OCT4^+NANOG^+EPILCs intermixed with EOMES^+T^+CDX2^− anterior primitive streak-like cells”.
